B1: GluB3-23: recombinant full length s-LMW glutenin GluB3-23 of wheat without signal peptide, plus hexa-histidine tag (protein)
chain: MKTFLIFALLAIVATSAIAQMENSHIPGLERPSQQQPLPPQQTLSHHQQQQPIQQQPQPFSQQQPCSQQQQQPLSQQQQPPFSQQQPPFSQQQQQPLSQQQQPPFSQQQPPFSQQQQPPFSQQQPPFSQQQQPVLPQQPSFSQQQLPPFSQQQSPFSQQQQIVLQQQPPFLQQQQPSLPQQPPFSQQQQQLVLPQQQIPFVHPSILQQLNPCKVFLQQQCSPVAMPQSLARSQMLQQSSCHVMQQQCCQQLPQIPQQSRYEAIRAIIYSIILQEQQQVQGSIQTPQQQPQQLGQCVSQPQQQSQQQLGQQPQQQQLAQGTFLQPHQIAQLEVMTSIALRTLPTMCRVNVPLYRTTTSVPFGVGTGVGSYHHHHHH
B2: Bet v 1: recombinant protein used for control pre-incubation of sera in the IgE inhibition dot blot (protein)
chain: GVFNYETETTSVIPAARLFKAFILDGDNLFPKVAPQAISSVENIEGNGGPGTIKKISFPEGFPFKYVKDRVDEVDHTNFKYNYSVIEGGPIGDTLEKISNEIKIVATPDGGSILKISNKYHTKGDHEVKAEQVKASKEMGETLLRAVESYLLAHSDAYN
B3: mal82: recombinant MBP fusion with part of repetitive region and C-terminal non repetitive region of Glu-B1, hexa-histidine tag (protein)
chain: PTSPQQSGQGQQGYYPTSPQQSGQGQQGYYPTSPQQSGQGQQPGQGQQPRQGQQGYYPISPQQSGQGQQPGQGQQRYYPTSPQQSGQGQQPGHEQQPGQWLQPGQGQQGYYPTSSQQSGQGHQSGQGQQGYYPTSLWQPGQGQQPGQGQQGYASPYHVSAEYQAARLKVAKAQQLAAQLPAMCRLEGSDALSTRQHHHHHH
modifications: left off: large carriers
B4: GG1: recombinant gamma gliadin 1 with 6×Histidine at the C terminal end, expressed in E. coli (protein)
chain: MNIQVDPSGQVQWLQQQLVPQLQQPLSQQPQQTFPQPQQTFPHQPQQQVPQPQQPQQPFLQPQQPFPQQPQQPFPQTQQPQQPFPQQPQQPFPQTQQPQQPFPQQPQQPFPQTQQPQQPFPQLQQPQQPFPQPQQQLPQPQQPQQSFPQQQRPFIQPSLQQQLNPCKNILLQQSKPASLVSSLWSIIWPQSDCQVMRQQCCQQLAQIPQQLQCAAIHSVVHSIIMQQQQQQQQQQGIDIFLPLSQHEQVGQGSLVQGQGIIQPQQPAQLEAIRSLVLQTLPSMCNVYVPPECSIMRAPFASIVAGIGGQHHHHHH
B5: C175: recombinant protein of clone 175: the three C-terminal regions of GluB3-23 and the hexa-histidine tag (protein)
chain: RQQLGQGQQGYYPTSLQPGQKQQAGQGQQSGQGQQGYYPTSPQQSGQGQQPGQGQPGYYPTSPQQSGQWQQPGQGQQPGQGQQSGQWQLVYYPTSPQQQIVLQQRPPFLQQQQPSLPQQPPFSQQQQQLVLPQQQIPFVHPSILQQLNPCKVFLQQQCSPVAMPQSLARSQMLQQSSCHVMQQQCCQQLPQIPQQSRYEAIRAIIYSIILQEQQQVQGSIQTPQQQPQQLGQCVSQPQQQSQQQLGQQPQQQQLAQGTFLQPHQIAQLEVMTSIALRTLPTMCRVNVPLYRTTTSVPFGVGTGVGSYHHHHHH
B6: mal43: recombinant MBP fusion with part of the repetitive domain of HMW glutenin Glu-B1 and hexa-histidine tag (protein)
chain: RNSGQQLGQGQPGYYPTSQQSEQRQQPGQGKQPGQGQQGYYPTSPQQSGQGQQLGQGQPGYYPTSPQQSGQGQQSGQGQQGYYPTSPQQSGQGQQPGQGQSGYFPTSRQQSGQGQQPGQGQQSGQGQQGQQPGQGQQAYYPTSSQQSRQRQQAGQWQRPGQGQPGYYPTSPQQPGQEQQSGQAQQSGQWQLVYYPTSPQQPGQLQQPAQGQQPAQGQQSAQEQQPGQAQQSGQWQLVYYPTSPQQPGQLQQPAQGQQGYYPTSPQQSGQGQQGYYPTSSRHHHHHH
modifications: left off: large carriers
B7: GG2: recombinant gamma gliadin 2 with 6×Histidine at the C terminal end, expressed in E. coli (protein)
chain: MNIQVDPSSQVQWPQQQPVPQPHQPFSQQPQQTFPQPQQTFPHQPQQQFPQPQQPQQQFLQPQQPFPQQPQQPYPQQPQQPFPQTQQPQQLFPQSQQPQQQFSQPQQQFPQPQQPQQSFPQQQPPFIQPSLQQQVNPCKNFLLQQCKPVSLVSSLWSMIWPQSDCQVMRQQSCQQLAQIPQQLQCAAIHTVIHSIIMQQEQQQGMHILLPLYQQQQVGQGTLVQGQGIIQPQQPAQLEAIRSLVLQTLPTMCNVYVPPECSIIKAPFSSVVAGIGGQYRHHHHHH
B8: α-purothionin: clone 84-derived wheat allergen expressed as recombinant protein with C-terminal hexahistidine tag in E. coli (protein, listed as Triticum aestivum)
chain: LSSGLSCPKGFPKLALESNSDEPDTIEYCNLGCRSSVCDYMVNAAADDEEMKLYVENCADACVSFCNGDAGLPSLDAY
modifications: C-terminal His6 tag
notes: clone 84-derived wheat allergen expressed as recombinant protein with C-terminal hexahistidine tag in E. coli

How the values were obtained:
[1] = system: serum IgE antibodies from patients suffering from wheat food allergy; experiment: IgE reactivity dot blot with sera from wheat food allergic patients; format: binding, human; conditions: for patients showing IgE reactivity: 0.5 μg dotted protein, sera 1:10; for patients reacting to the recombinant protein (IgE): FIG. 12
Experimental: GluB3-23 is a major allergen in wheat dependent food allergy IgE reactivity of wheat food allergic patients to GluB3-23 and C175 was tested by dot blot analysis shown in FIG. 10 and FIG. 11. 0.5 μg of purified recombinant proteins (GluB3-23 and C175), 2 μg aqueous wheat seed (WSE) extract and 0.5 μg of human serum albumin (HSA) were dotted onto nitrocellulose (Whatman Protran nitrocellulose membrane, Sigma Aldrich) strips and after blocking with buffer A (50 mM sodium phosphate buffer, pH7.4, 0.5% w/v BSA, 0.5% v/v Tween-20, 0.05% w/v NaN3) incubated with 1:10 diluted sera from patients suffering from wheat food allergy. Bound IgE Abs were detected with 1:10 diluted ^125I labeled anti human IgE Abs and visualized by autoradiography.
Sera were obtained from populations of patients suffering from wheat food allergy. Patients were selected according to positive case history, positive Skin Prick Test (SPT), double blind or open food challenge or CAP-test (Phadia, Uppsala, Sweden) to wheat.
The recombinant high molecular weight proteins mal43 and mal82, representing partial proteins of Glu-B1, were tested in dot blots with sera from patients from a population shown in FIG. 11. Sera were obtained from patients suffering from wheat food allergy. Patients were selected according to positive case history and positive Skin Prick Test (SPT) or CAP-test (Phadia, Uppsala, Sweden) to wheat. 0.5 μg of purified recombinant proteins (mal43 and mal82), 2 μg aqueous wheat seed (WSE) extract and 0.5 μg of human serum albumin (HSA) were dotted onto nitrocellulose (Whatman Protran nitrocellulose membrane, Sigma Aldrich) strips and after blocking with buffer A incubated with 1:10 diluted patients sera. Bound IgE Abs were detected with 1:10 diluted ^125I labeled anti human IgE Abs and visualized by autoradiography. […] On the basis of WHO/IRIS Allergen Standardization Committee definition (www.allergen.org), an allergen recognized by 10% of the patients is a minor allergen.
The IgE reactivity of dot-blotted recombinant wheat α-purothionin was tested with serum IgE antibodies from patients suffering from wheat food allergy (Table 3). […] 23% of patients from one population (n=13) and 29% of the patients from another population (n=24) reacted to the recombinant α-purothionin. (FIG. 12).

IgE binding to GluB3-23 = experiment: IgE inhibition dot blot (sera pre-incubated with recombinant protein); design: species or system human
Experimental: An inhibition dot blot was performed with patients' sera. […] Bound IgE Abs were detected with ^125I-labelled anti human IgE Abs and visualized by autoradiography, the dot intensity was measured by a gamma counter.

[2] = system: serum IgA of celiac disease patients; experiment: IgA reactivity ELISA to wheat food antigens; format: binding, human; conditions: 5 μg/ml coated, sera 1:100, read at 405 nm, FIG. 15
Experimental: 100 μl of the wheat proteins GG1 (Gamma gliadin 1), GG2 (Gamma gliadin 2), α-purothionin, GluB3-23, C-175, Mal 82 and Mal 43 of a concentration of 5 μg/ml were coated overnight at 4° C. onto Nunc Maxisorp Elisa plates. The remaining free binding sites were blocked with 1% BSA in PBST for 2 hours at room temperature. 100 μl of sera from celiac disease patients, celiac patients on diet and negative controls were added at a dilution of 1:100 in 0.5% BSA in PBST buffer and incubated for 12 hours at 4° C. The plates were washed 5 times in PBST buffer and 100 μl of mouse anti-human IgA1/A2 (BD Biosciences) diluted to 1:1000 in 0.5% BSA/PBST buffer was added and incubated at room temperature for 5 hours. The plates were then washed 5 times with PBST and 100 μl of sheep anti-mouse IgG conjugated with Horse radish peroxidise (HRP) (Amersham) antibodies were added and incubated at 37° C. for one hour.

[3] = system: serum IgA from Dermatitis herpetiformis (DH) patients; experiment: Dermatitis herpetiformis serum IgA reactivity ELISA; format: binding, human; conditions: 5 μg/ml coated; n=12 DH patients, 2 healthy controls; FIG. 18
Experimental: ELISA plates were coated with 100 μl of 5 μg/ml rGamma gliadin 1, rGamma gliadin 2, α-gliadin peptide p56-75 (α-gli peptide), deamidated α-gliadin peptide (D) and Human serum albumin. The bound proteins were probed with sera from Dermatitis herpetiformis (DH) patients and healthy controls. IgA reactivity to the proteins was detected using mouse anti-human IgA1/A2 and sheep anti-mouse IgG-HRP labelled antibody. (n=12 DH patients and 2 healthy controls).

[4] = another wheat food allergy patient population, FIG. 11
[5] = wheat food allergy patient population of FIG. 10
[6] = serum Pat 3, pre-incubated with 10 μg protein
[7] = serum Pat 8, pre-incubated with 10 μg protein
[8] = serum Pat 10, pre-incubated with 10 μg protein
[9] = serum Pat 11, pre-incubated with 10 μg protein
[10] = serum Pat 12, pre-incubated with 10 μg protein

Row | Molecule | patients showing IgE reactivity [1, 4] [%] | bound IgE, dot intensity by gamma counter (IgE binding to GluB3-23; [6]) [cpm] | bound IgE, dot intensity by gamma counter (IgE binding to GluB3-23; [8]) [cpm] | bound IgE, dot intensity by gamma counter (IgE binding to GluB3-23; [9]) [cpm] | bound IgE, dot intensity by gamma counter (IgE binding to GluB3-23; [10]) [cpm] | IgA reactivity [2] | other results
1 | B1 | 80.8 | 326.0 | 36.0 | 58.9 | 17.7 | moderate | patients showing IgE reactivity [1, 5]: 54.5%; % inhibition of IgE binding (IgE binding to GluB3-23; [6]): 63.3%; % inhibition of IgE binding (IgE binding to GluB3-23; [7]): 100.0%; bound IgE, dot intensity by gamma counter (IgE binding to GluB3-23; [7]): 31.5 cpm; % inhibition of IgE binding (IgE binding to GluB3-23; [8]): 100.0%; % inhibition of IgE binding (IgE binding to GluB3-23; [9]): 93.8%
2 | B2 |  | 829.0 | 377.6 | 379.0 | 11.5 |  | 
3 | B3 | 30.8 |  |  |  |  | moderate | 
4 | B4 |  |  |  |  |  | high | IgA reactivity, DH patients versus healthy controls [3]: higher IgA reactivity to sera from DH patients than to healthy controls
5 | B5 | 73.1 | 650.0 | 379.1 | 190.0 | 16.2 | moderate | patients showing IgE reactivity [1, 5]: 27.3%; % inhibition of IgE binding (IgE binding to GluB3-23; [6]): 22.6%; % inhibition of IgE binding (IgE binding to GluB3-23; [7]): 3.0%; bound IgE, dot intensity by gamma counter (IgE binding to GluB3-23; [7]): 73.9 cpm; % inhibition of IgE binding (IgE binding to GluB3-23; [8]): 0.0%; % inhibition of IgE binding (IgE binding to GluB3-23; [9]): 55.3%; potential to inhibit IgE binding to GluB3-23 (IgE binding to GluB3-23; summary of Table 2): low potential to inhibit IgE binding
6 | B6 | 30.8 |  |  |  |  | moderate | 
7 | B7 |  |  |  |  |  | high | IgA reactivity, DH patients versus healthy controls [3]: higher IgA reactivity to sera from DH patients than to healthy controls
8 | B8 |  |  |  |  |  | negative | patients reacting to the recombinant protein (IgE) ([1]; another population (n=24)): 29%; patients reacting to the recombinant protein (IgE) ([1]; one population (n=13)): 23%

— patent US20140037661A1, “Wheat Antigens and Peptides for Diagnosis of Wheat Induced Hypersensitivity” (PHADIA AB, priority 2011, published 2014)
